Test results published in patent US20110318339A1 (FABRUS, published 2011).
Substitutions are numbered along the chain they refer to. Names may count otherwise.

B1: Fab VH5-51_IGHD5-18*01>3_IGHJ4*01 & V3-4_IGLJ1*01 (Fab, V domains shown)
VH: EVQLVQSGAEVKKPGESLKISCKGSGYSFTSYWIGWVRQMPGKGLEWMGIIYPGDSDTRYSPSFQGQVTISADKSISTAYLQWSSLKASDTAMYYCARRGYSYGYDYFDYWGQGTLVTVSS
VL: QTVVTQEPSFSVSPGGTVTLTCGLSSGSVSTSYYPSWYQQTPGQAPRTLIYSTNTRSSGVPDRFSGSILGNKAALTITGAQADDESDYYCVLYMGSGISYVFGTGTKVTVL
notes: Fab made in E. coli: VH on CH1 with His6 and Flag tags (Plasmid A), VL on lambda CL (Plasmid E); also called wildtype; parent
B2: Fab VH5-51_IGHD5-18*01>3_IGHJ4*01 G100K/G104T G24T/S28R/G35V & V3-4_IGLJ1*01 V91L/S96P S52Q (Fab, V domains shown)
VH: B1 VH with G24T, S28R, G35V, G100K, G104T
VL: B1 VL with S52Q, V91L, S96P
notes: Fab made in E. coli: VH on CH1 with His6 and Flag tags (Plasmid A), VL on lambda CL (Plasmid E); also called H: KT TRV & L: LP S52Q
B3: Fab VH5-51_IGHD5-18*01>3_IGHJ4*01 G100K/G104T & V3-4_IGLJ1*01 M94R/S96M (Fab, V domains shown)
VH: B1 VH with G100K, G104T
VL: B1 VL with M94R, S96M
notes: Fab made in E. coli: VH on CH1 with His6 and Flag tags (Plasmid A), VL on lambda CL (Plasmid E); also called H: KT & L: RM
B4: Fab VH5-51_IGHD5-18*01>3_IGHJ4*01 G100K/G104T G24T/S28R/G35V & V3-4_IGLJ1*01 V91L/S96P S52L (Fab, V domains shown)
VH: B1 VH with G24T, S28R, G35V, G100K, G104T
VL: B1 VL with S52L, V91L, S96P
notes: Fab made in E. coli: VH on CH1 with His6 and Flag tags (Plasmid A), VL on lambda CL (Plasmid E); also called H: KT TRV & L: LP S52L
B5: Fab VH5-51_IGHD5-18*01>3_IGHJ4*01 G100K/G104T G24T/S28R/G35V & V3-4_IGLJ1*01 V91L/S96P S52Y (Fab, V domains shown)
VH: B1 VH with G24T, S28R, G35V, G100K, G104T
VL: B1 VL with S52Y, V91L, S96P
notes: Fab made in E. coli: VH on CH1 with His6 and Flag tags (Plasmid A), VL on lambda CL (Plasmid E); also called H: KT TRV & L: LP S52Y
B6: Fab VH5-51_IGHD5-18*01>3_IGHJ4*01 G100K/G104T G24T/S28R/G35V & V3-4_IGLJ1*01 V91L/S96P S52V (Fab, V domains shown)
VH: B1 VH with G24T, S28R, G35V, G100K, G104T
VL: B1 VL with S52V, V91L, S96P
notes: Fab made in E. coli: VH on CH1 with His6 and Flag tags (Plasmid A), VL on lambda CL (Plasmid E); also called H: KT TRV & L: LP S52V
B7: Fab VH5-51_IGHD5-18*01>3_IGHJ4*01 G100K/G104T G24L/S28R/G35V & V3-4_IGLJ1*01 (Fab, V domains shown)
VH: B1 VH with G24L, S28R, G35V, G100K, G104T
VL: B1 VL
notes: Fab made in E. coli: VH on CH1 with His6 and Flag tags (Plasmid A), VL on lambda CL (Plasmid E); also called H: KT LRV & L: wt
B8: Fab VH5-51_IGHD5-18*01>3_IGHJ4*01 G100K/G104T G24T/S28R/G35V & V3-4_IGLJ1*01 V91L/S96P S52I (Fab, V domains shown)
VH: B1 VH with G24T, S28R, G35V, G100K, G104T
VL: B1 VL with S52I, V91L, S96P
notes: Fab made in E. coli: VH on CH1 with His6 and Flag tags (Plasmid A), VL on lambda CL (Plasmid E); also called H: KT TRV & L: LP S52I
B9: Fab VH5-51_IGHD5-18*01>3_IGHJ4*01 G100K/G104T G24T/S28R/G35V & V3-4_IGLJ1*01 V91L/S96P S52K (Fab, V domains shown)
VH: B1 VH with G24T, S28R, G35V, G100K, G104T
VL: B1 VL with S52K, V91L, S96P
notes: Fab made in E. coli: VH on CH1 with His6 and Flag tags (Plasmid A), VL on lambda CL (Plasmid E); also called H: KT TRV & L: LP S52K
B10: Fab VH5-51_IGHD5-18*01>3_IGHJ4*01 G100K/G104T G24T/S28R/G35V & V3-4_IGLJ1*01 V91L/S96P S52T (Fab, V domains shown)
VH: B1 VH with G24T, S28R, G35V, G100K, G104T
VL: B1 VL with S52T, V91L, S96P
notes: Fab made in E. coli: VH on CH1 with His6 and Flag tags (Plasmid A), VL on lambda CL (Plasmid E); also called H: KT TRV & L: LP S52T
B11: Fab VH5-51_IGHD5-18*01>3_IGHJ4*01 G100K/G104T G24A/S28R/G35V & V3-4_IGLJ1*01 (Fab, V domains shown)
VH: B1 VH with G24A, S28R, G35V, G100K, G104T
VL: B1 VL
notes: Fab made in E. coli: VH on CH1 with His6 and Flag tags (Plasmid A), VL on lambda CL (Plasmid E); also called H: KT ARV & L: wt

Key:
[1] = molecular target: T1, recombinant human DLL4 (Cat# 1506-D4/CF, R&D Systems) (human, UniProt Q9NR61 27-529); assay: ELISA, DLL4 coated, Fab 25 nM
T1 construct: Bought protein; also called hDLL4; rHuman DLL4
Procedure: (§1) The plate was blocked by adding 1% BSA in Tris-buffered Saline Tween (TBST) and incubating for 1 hour at room temperature followed by washing 2 times with 150 μl TBST. A Fab antibody was serially diluted in 1% BSA in PBS. A 50 μl aliquot of each serial dilution was added, in triplicate, to each well and the plate was incubated for 1 hour at room temperature followed by washing 2 times with TBST. 50 μl of either goat anti-human kappa HRP conjugated secondary antibody (Cat # A7164-1 mL, Sigma-Aldrich) or goat anti-human lambda HRP conjugated secondary antibody (Cat # L1645-1 ml, Sigma-Aldrich), diluted 1:1000 in 1% BSA in PBS, was added to each well and the plate was incubated for 30 minutes at room temperature followed by washing 3 times with 200 μl TBST. Finally, 50 μl TMB one-component reagent (Cat # TMBW-1000-01, BioFax) was added and allowed to develop for 2 minutes at room temperature. The reaction was immediately halted by the addition of 50 μl 0.5M H₂SO₄ and the absorbance at 450 nm was measured using an ELISA plate reader.

[2] = molecular target: T1, recombinant human DLL4 (Cat# …); assay: ELISA, DLL4 coated, Fab 50 nM
Procedure: (§2) In this example, an ELISA binding assay was used to assess the dose-dependent binding of Fab antibodies to recombinant human DLL4 and recombinant mouse DLL4.
as §1

[3] = molecular target: T1, recombinant human DLL4 (Cat# …); assay: ELISA, DLL4 coated, Fab 100 nM
Procedure: as §2, §1

[4] = molecular target: T1, recombinant human DLL4 (Cat# …); assay: ELISA, DLL4 coated, Fab 12.5 nM
Procedure: as §2, §1

[5] = molecular target: T1, recombinant human DLL4 (Cat# …); assay: ELISA, DLL4 coated, Fab 20 nM
Procedure: as §1

[6] = molecular target: T1, recombinant human DLL4 (Cat# …); assay: ELISA, DLL4 coated, Fab 0.74 nM
Procedure: as §1

[7] = molecular target: T1, recombinant human DLL4 (Cat# …); assay: ELISA, DLL4 coated, Fab 2.22 nM
Procedure: as §1

[8] = molecular target: T1, recombinant human DLL4 (Cat# …); assay: ELISA, DLL4 coated, Fab 6.67 nM
Procedure: as §1

Binder	ELISA absorbance at 450 nm [1] [A450]	ELISA absorbance at 450 nm [2] [A450]	ELISA absorbance at 450 nm [3] [A450]	ELISA absorbance at 450 nm [4] [A450]	ELISA absorbance at 450 nm [5] [A450]	ELISA absorbance at 450 nm [6] [A450]	ELISA absorbance at 450 nm [7] [A450]	ELISA absorbance at 450 nm [8] [A450]
B1	0.18	0.16	0.17	0.17	–	–	–	–
B2	0.67	0.81	0.96	0.47	–	–	–	–
B3	–	–	–	–	0.087	0	0.007	0.023
B4	0.58	0.78	1.02	0.43	–	–	–	–
B5	0.56	0.72	0.9	0.41	–	–	–	–
B6	0.6	0.74	0.95	0.43	–	–	–	–
B7	–	–	–	–	0.027	0.006	0	0.005
B8	0.6	0.82	1.04	0.4	–	–	–	–
B9	0.79	1.03	1.23	0.56	–	–	–	–
B10	0.62	0.79	0.99	0.41	–	–	–	–
B11	–	–	–	–	0.054	0.008	0.002	0.025
